Where “and” joins values, the source holds several entries; their conditions need not be identical. Equal values may be shown once.
Target: the molecule itself
Experiment: SEC; Superose 6 Increase 3.2/300; freshly purified recombinant protein concentrated up to 1 mg/ml; absorbance at 280 nm

B1: recombinant BAZ2AN (domain or fragment, UniProt Q91YE5 1-744, looked up)
chain: MEMEANDHFNFTGLPPAPAASGLKPSPSSGEGLYTNGSPMNFPQQGKSLNGDVNVNGLSTVSHTTTSGILNSAPHSSSTSHLHHPNVAYDCLWNYSQYPSANPGNNLKDPPLLSQFPGGQYPLNGILGGNRQPSSPSHNTNLRAGSQEFWANGTQSPMGLNFDSQELYDSFPDQNFEVMPNGPPSFFTSPQTSPMLGSSIQTFAPSQDVSSDIHPDEAAEKELTSVVAENGTGLVGSLELEEEQPELKMCGYNGSVSSVESLHQEVSVLVPDPTVSCLDDPSHLPDQLEDTPILSEDSLEPFDSLAAEPVSGSLYGIDDAELMGAEDKLPLEGNPVISALDCPALSNANAFSLLADDSQTSASIFVSPTSPPVLGESVLQDNSFGLNSCSDSEQEEIETQSSNFQRPLTEPAPDQPPSTQLHPAVSPTASPAASLTASAEISPAVSPVASSPVPPEVFVAVSPASSPALPAISLEASMTTPVTSPQGSPEPSPAAAFQTVSPARKNVSSAPKARADREETTGGAVAVSGSGDVLKRRIATPEEVRLPLQHGWRREVRIKKGSHRWQGETWYYGPCGKRMKQFPEVIKYLSRNVVHSVRREHFSFSPRMPVGDFFEERDTPEGLQWVQLSAEEIPSRIQAITGKRGRPRNNEKAKNKEVPKVKRGRGRPPKIKMPELLNKTDNRLPKKLETQEILSEDDKAKMTKNKKKMRQKVQRGESQTPVQGQARNKRKQDTKSLKQKDTKK
notes: BAZ2A (TIP5) N-terminal region, aa 1-744; also called BAZ2AN-Hist; source: E. coli BL21(DE3), purified (Glutathione Sepharose, PreScission cleavage, HisTrap)
  stoichiometry N: 4 units and 6 units

Source: article PMC11065421, “An RNA-dependent and phase-separated active subnuclear compartment safeguards repressive chromatin domains” (Molecular Cell, 2024)
